Each block holds one molecule with its values, some of them ahead of it.
Assays:
脂联素抗原(购自HYTEST，8AN7) [1] = target: 脂联素抗原(购自HYTEST，8AN7) (UniProt Q15848); assay: BLI, antibody captured on AMC sensor, adiponectin antigen in gradient dilution in PBST
脂联素抗原(购自HYTEST，8AN7) [2] = target: 脂联素抗原(购自HYTEST，8AN7) (UniProt Q15848); assay: indirect ELISA, adiponectin coated at 0.5 ug/ml, antibody at 0.39 ng/ml
脂联素抗原(购自HYTEST，8AN7) [3] = target: 脂联素抗原(购自HYTEST，8AN7) (UniProt Q15848); assay: indirect ELISA, adiponectin coated at 0.5 ug/ml, antibody at 1.56 ng/ml
脂联素抗原(购自HYTEST，8AN7) [4] = target: 脂联素抗原(购自HYTEST，8AN7) (UniProt Q15848); assay: indirect ELISA, adiponectin coated at 0.5 ug/ml, antibody at 0 ng/ml (blank)
脂联素抗原(购自HYTEST，8AN7) [5] = target: 脂联素抗原(购自HYTEST，8AN7) (UniProt Q15848); assay: indirect ELISA, adiponectin coated at 0.5 ug/ml, antibody at 0.78 ng/ml
脂联素抗原(购自HYTEST，8AN7) [6] = target: 脂联素抗原(购自HYTEST，8AN7) (UniProt Q15848); assay: indirect ELISA, adiponectin coated at 0.5 ug/ml, antibody at 6.25 ng/ml
脂联素抗原(购自HYTEST，8AN7) [7] = target: 脂联素抗原(购自HYTEST，8AN7) (UniProt Q15848); assay: indirect ELISA, adiponectin coated at 0.5 ug/ml, antibody at 3.13 ng/ml
Adiponectin = target: T1, Adiponectin (human, UniProt Q15848); assay: BLI
T1 chain: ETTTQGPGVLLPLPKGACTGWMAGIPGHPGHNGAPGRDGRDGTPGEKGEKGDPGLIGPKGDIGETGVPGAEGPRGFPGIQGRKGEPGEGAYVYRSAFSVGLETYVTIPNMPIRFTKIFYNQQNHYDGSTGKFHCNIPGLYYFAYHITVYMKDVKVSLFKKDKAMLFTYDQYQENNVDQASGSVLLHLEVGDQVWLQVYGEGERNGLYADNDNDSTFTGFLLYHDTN

Kd (脂联素抗原(购自HYTEST，8AN7) [1]): 87.1 nM
koff (脂联素抗原(购自HYTEST，8AN7) [1]): 0.00923 s⁻¹
kon (脂联素抗原(购自HYTEST，8AN7) [1]): 106000 M⁻¹ s⁻¹
OD450 (ref 630 nm) (脂联素抗原(购自HYTEST，8AN7) [2]): 0.261 OD
OD450 (ref 630 nm) (脂联素抗原(购自HYTEST，8AN7) [3]): 0.802 OD
OD450 (ref 630 nm) (脂联素抗原(购自HYTEST，8AN7) [4]): 0.055 OD
OD450 (ref 630 nm) (脂联素抗原(购自HYTEST，8AN7) [5]): 0.451 OD
OD450 (ref 630 nm) (脂联素抗原(购自HYTEST，8AN7) [6]): 1.8 OD
OD450 (ref 630 nm) (脂联素抗原(购自HYTEST，8AN7) [7]): 1.43 OD
Molecule: 对照 (antibody)

koff (脂联素抗原(购自HYTEST，8AN7) [1]): 0.00209 s⁻¹
kon (脂联素抗原(购自HYTEST，8AN7) [1]): 5.58e+06 M⁻¹ s⁻¹
Kd (Adiponectin): 0.374 nM
OD450 (ref 630 nm) (脂联素抗原(购自HYTEST，8AN7) [2]): 1.02 OD
OD450 (ref 630 nm) (脂联素抗原(购自HYTEST，8AN7) [3]): 2.06 OD
OD450 (ref 630 nm) (脂联素抗原(购自HYTEST，8AN7) [4]): 0.074 OD
OD450 (ref 630 nm) (脂联素抗原(购自HYTEST，8AN7) [5]): 1.79 OD
OD450 (ref 630 nm) (脂联素抗原(购自HYTEST，8AN7) [6]): 2.33 OD
OD450 (ref 630 nm) (脂联素抗原(购自HYTEST，8AN7) [7]): 2.26 OD
B1: Anti-APN 6C2mut1 (antibody, V domains shown)
VH: EVQLQQSGPELVKPGASVKMSCKASGYSFTGYFINWVKQSHGKSLEWIGRINPYNGDTFYNEKFKGKATFTADISSSAAHMELLSLTSEDSAVYYCGRGGGLQRPYFDYWGQGTTLTVSP
VL: DIQMTQSSSYLSVSLGGRVTITCKASDHVNNWLAWYQQKPGNAPRLLISGATNLETGVPSRFSGSGSGKDYTLTITSVQTEDVATYYCQQYWISALTFGAGTKLELN

Reference: patent CN117327177A (dated 2024)
